{
  "source": "paper doi:10.1101/2023.02.26.530074",
  "about": "“Atomic resolution structure of a DNA-binding histone protein from the bacterium Bdellovibrio bacteriovorus” (bioRxiv, 2023)",
  "proteins": {"B1": {"name": "histone protein HBb from Bdellovibrio bacteriovorus (natural protein)", "chain": "MAEVLVVTSKVKKLIKEKGQMNTSAETIDVLSKAIEQLCLKGVESAKADGRKTVMARDIVIDHL", "notes": "HBb, histone homolog of Bdellovibrio bacteriovorus HD100, UniProt Q6MRM1; 64 amino acid residues, single histone fold domain; the gene encoding HBb was codon-optimized, synthesized and cloned into pETHis1a; In the crystal the first three and last three amino acids are not resolved; also called bacterial histone HBb; Bd0055; source: E. coli Mutant56(DE3), purified (HisTrap, TEV cleavage, second …)"}},
  "target": "the molecule itself",
  "assay": "SEC-MALS; HBb at 3 mg/mL, Superdex 75 Increase 10/300 GL, 20 mM Tris pH 8.0, 150 mM NaCl, 1 M urea, 0.5 mL/min",
  "data": [
    {"protein": "B1", "values": [
      {"measurement": "stoichiometry N", "value": 2}
    ]}
  ]
}
